Source: patent US20230183713A1, “SITE-SPECIFIC RECOMBINASES FOR EFFICIENT AND SPECIFIC GENOME EDITING” (TECHNISCHE UNIVERSITÄt DRESDEN, published 2023)

Assays:
Test in all cases: cell_activity; E. coli plasmid assay, median
Settings in all cases: chain copies: 2
[1] = biological target: Cre Q311R + Cre W315M (UniProt P06956;P06956 SEQ:1-343,SEQ:1-343, W315M (second monomer))
Protocol: (§1) To generate further obligate recombinases, additional single mutations in the catalytic region (i.e. at amino acid positions 129-136, 163-181, 199-211, 289-301, 310-316 and 321-324 of SEQ ID NO: 1, cf. FIG. 17A, dark regions) of the recombination synapse of the Cre recombinase (Guo et al. 1997, Lee et al. 2002, Gibb et al. 2010, Meinke et al. 2016) were introduced as outlined in Table 6 below. […] Recombination activity of the recombinases on loxP was measured by a plasmid-based assay as previously described (6, 9, 10). in the experiments, the recombined pEVO is smaller in size compared to the non-recombined pEVO. […] These two different fragments can either be distinguished by gel electrophoresis or by sequencing. The recombination efficiencies (indicated as dimer and monomer acitivty, respectively) were calculated based on the ratio of recombined and non-recombined substrate using the following formula: Recombination activity (%)=100×(recombined substrate/(recombined+non-recombined substrates)).

[2] = biological target: Cre K201F + Cre Y324C (UniProt P06956;P06956 SEQ:1-343,SEQ:1-343, K201F (first monomer); Y324C (second monomer))
Protocol: as §1

[3] = biological target: Cre K201A + Cre Q311R (UniProt P06956;P06956 SEQ:1-343,SEQ:1-343, K201A (first monomer))
Protocol: as §1

[4] = biological target: Cre E129R + Cre K201R (UniProt P06956;P06956 SEQ:1-343,SEQ:1-343, E129R (first monomer))
Protocol: as §1

[5] = biological target: Cre R173F + Cre E176V (UniProt P06956;P06956 SEQ:1-343,SEQ:1-343, R173F (first monomer); E176V (second monomer))
Protocol: as §1

[6] = biological target: Cre E176I + Cre Q311R (UniProt P06956;P06956 SEQ:1-343,SEQ:1-343, E176I (first monomer))
Protocol: as §1

[7] = biological target: Cre R173G + Cre K201Y (UniProt P06956;P06956 SEQ:1-343,SEQ:1-343, R173G (first monomer); K201Y (second monomer))
Protocol: as §1

[8] = biological target: Cre Q311R + Cre W315S (UniProt P06956;P06956 SEQ:1-343,SEQ:1-343, W315S (second monomer))
Protocol: as §1

[9] = biological target: Cre Q311R + Cre Y324F (UniProt P06956;P06956 SEQ:1-343,SEQ:1-343, Y324F (second monomer))
Protocol: as §1

[10] = biological target: Cre R292G + Cre Q311R (UniProt P06956;P06956 SEQ:1-343,SEQ:1-343, R292G (first monomer))
Protocol: as §1

[11] = biological target: Cre R173S + Cre Q311R (UniProt P06956;P06956 SEQ:1-343,SEQ:1-343, R173S (first monomer))
Protocol: as §1

[12] = biological target: Cre Q133H + Cre Q311R (UniProt P06956;P06956 SEQ:1-343,SEQ:1-343, Q133H (first monomer))
Protocol: as §1

[13] = biological target: Cre E129R + Cre Q311R (UniProt P06956;P06956 SEQ:1-343,SEQ:1-343, E129R (first monomer))
Protocol: as §1

[14] = biological target: Cre R173A + Cre Q311R (UniProt P06956;P06956 SEQ:1-343,SEQ:1-343, R173A (first monomer))
Protocol: as §1

[15] = biological target: Cre Q311R + Cre Y324I (UniProt P06956;P06956 SEQ:1-343,SEQ:1-343, Y324I (second monomer))
Protocol: as §1

[16] = biological target: Cre W315Q + Cre Y324V (UniProt P06956;P06956 SEQ:1-343,SEQ:1-343, W315Q (first monomer); Y324V (second monomer))
Protocol: as §1

[17] = biological target: Cre W315K + Cre Y324K (UniProt P06956;P06956 SEQ:1-343,SEQ:1-343, W315K (first monomer); Y324K (second monomer))
Protocol: as §1

[18] = biological target: Cre E176W + Cre Q311R (UniProt P06956;P06956 SEQ:1-343,SEQ:1-343, E176W (first monomer))
Protocol: as §1

[19] = biological target: Cre H289D + Cre Q311R (UniProt P06956;P06956 SEQ:1-343,SEQ:1-343, H289D (first monomer))
Protocol: as §1

[20] = biological target: Cre K201M + Cre K201R (UniProt P06956;P06956 SEQ:1-343,SEQ:1-343, K201M (first monomer))
Protocol: as §1

[21] = biological target: Cre R292Y + Cre Y324M (UniProt P06956;P06956 SEQ:1-343,SEQ:1-343, R292Y (first monomer); Y324M (second monomer))
Protocol: as §1

[22] = biological target: Cre R292F + Cre Q311R (UniProt P06956;P06956 SEQ:1-343,SEQ:1-343, R292F (first monomer))
Protocol: as §1

[23] = biological target: Cre H289W + Cre W315C (UniProt P06956;P06956 SEQ:1-343,SEQ:1-343, H289W (first monomer); W315C (second monomer))
Protocol: as §1

B1: loxP (dsDNA)
DNA 1: ATAACTTCGTATAATGTATGCTATACGAAGTTAT
DNA 2: ATAACTTCGTATAGCATACATTATACGAAGTTAT
- activity [1]: 95 % recombined
- activity [2]: 98 % recombined
- activity [3]: 95 % recombined
- activity [4]: 26 % recombined
- activity [5]: 82 % recombined
- activity [6]: 36 % recombined
- activity [7]: 95 % recombined
- activity [8]: 37 % recombined
- activity [9]: 95 % recombined
- activity [10]: 97 % recombined
- activity [11]: 97 % recombined
- activity [12]: 96 % recombined
- activity [13]: 93 % recombined
- activity [14]: 93 % recombined
- activity [15]: 96 % recombined
- activity [16]: 97 % recombined
- activity [17]: 99 % recombined
- activity [18]: 90 % recombined
- activity [19]: 97 % recombined
- activity [20]: 76 % recombined
- activity [21]: 90 % recombined
- activity [22]: 42 % recombined
- activity [23]: 87 % recombined
